Assay results taken from the Immune Epitope Database (IEDB).

Assays:
HLA-A*02:01 [1] = assay: IEDB peptide-MHC binding, purified MHC/competitive/radioactivity; filed as Kd, often an IC50 or EC50 that approximates it; ≥ and ≤ were set here for values at or beyond the usual limits of such assays
HLA-A*02:03 [2] = assay: as above
HLA-A*02:17 = assay: as above
HLA-A*02:01 [3] = assay: IEDB peptide-MHC binding, purified MHC/competitive/fluorescence; filed as Kd, often an IC50 or EC50 that approximates it; ≥ and ≤ were set here for values at or beyond the usual limits of such assays
HLA-A*02:03 [4] = assay: as above
HLA-A*02:11 = assay: as above
HLA-A*02:12 = assay: as above
HLA-A*02:16 = assay: as above
HLA-A*02:19 = assay: as above
HLA-A*03:01 = assay: as above
HLA-A*26:01 = assay: as above
HLA-A*29:02 = assay: as above
HLA-A*68:02 [5] = assay: as above
HLA-A*69:01 = assay: as above
HLA-B*15:01 [6] = assay: as above
HLA-B*15:17 = assay: as above
HLA-B*18:01 = assay: as above
HLA-B*27:03 = assay: as above
HLA-B*39:01 = assay: as above
HLA-B*46:01 = assay: as above
HLA-B*51:01 [7] = assay: as above
HLA-B*57:01 = assay: as above
HLA-B*07:02 = assay: IEDB peptide-MHC binding, purified MHC/direct/fluorescence; filed as Kd, often an IC50 or EC50 that approximates it; ≥ and ≤ were set here for values at or beyond the usual limits of such assays
HLA-B*15:01 [8] = assay: as above
HLA-B*51:01 [9] = assay: as above
HLA-A*32:01 = assay: IEDB peptide-MHC binding, purified MHC/competitive/radioactivity; filed as Kd, often an IC50 or EC50 that approximates it; ≥ and ≤ were set here for values at or beyond the usual limits of such assays
HLA-B*58:01 = assay: as above
HLA-A*02:06 = assay: as above
HLA-A*68:02 [10] = assay: as above; conditions: source organism: Dengue virus 3 Singapore/8120/1995
HLA-B*35:01 = assay: as above
HLA-B*53:01 = assay: as above
HLA-B*08:01 = assay: as above
HLA-A*24:03 = assay: IEDB peptide-MHC binding, purified MHC/competitive/fluorescence; filed as Kd, often an IC50 or EC50 that approximates it; ≥ and ≤ were set here for values at or beyond the usual limits of such assays
HLA-B*51:01 [11] = assay: IEDB peptide-MHC binding, purified MHC/competitive/radioactivity; filed as Kd, often an IC50 or EC50 that approximates it; ≥ and ≤ were set here for values at or beyond the usual limits of such assays; conditions: source organism: Dengue virus 2 Jamaica/1409/1983
[12] = source organism: Dengue virus 4 Philippines/H241/1956
[13] = source organism: Brucella suis 1330
[14] = source organism: Vibrio cholerae
[15] = source organism: Dengue virus 1 Singapore/S275/1990
[16] = source organism: Dengue virus 1 Brazil/97-11/1997
[17] = source organism: West Nile virus
[18] = source organism: Dengue virus 3 China/80-2/1980
[19] = source organism: Dengue virus 3 Martinique/1243/1999
[20] = source organism: Dengue virus 3 Singapore/8120/1995
[21] = source organism: Vibrio vulnificus YJ016
[22] = source organism: Dengue virus 2 Jamaica/1409/1983
[23] = source organism: Burkholderia mallei
[24] = source organism: Escherichia coli F11
[25] = source organism: Dengue virus 1 Nauru/West Pac/1974
[26] = source organism: Cryptosporidium parvum Iowa II
[27] = source organism: Vibrio cholerae 2740-80

ALWDVPSPA
Kd (HLA-A*02:01 [1]; [12]): 0.00272 µM
Kd (HLA-A*02:03 [2]; [12]): 0.0168 µM
Kd (HLA-A*02:17; [12]): 0.885 µM

TEWPQLKVA
Kd (HLA-A*02:01 [3]; [13]): ≥ 20 µM
Kd (HLA-A*02:03 [4]; [13]): ≥ 20 µM
Kd (HLA-A*02:11; [13]): ≥ 20 µM
Kd (HLA-A*02:12; [13]): ≥ 20 µM
Kd (HLA-A*02:16; [13]): ≥ 20 µM
Kd (HLA-A*02:19; [13]): ≥ 20 µM
Kd (HLA-A*03:01; [13]): ≥ 20 µM
Kd (HLA-A*26:01; [13]): ≥ 20 µM
Kd (HLA-A*29:02; [13]): ≥ 20 µM
Kd (HLA-A*68:02 [5]; [13]): ≥ 20 µM
Kd (HLA-A*69:01; [13]): ≥ 20 µM
Kd (HLA-B*15:01 [6]; [13]): ≥ 20 µM
Kd (HLA-B*15:17; [13]): ≥ 20 µM
Kd (HLA-B*18:01; [13]): 0.0336 µM
Kd (HLA-B*27:03; [13]): ≥ 20 µM
Kd (HLA-B*39:01; [13]): ≥ 20 µM
Kd (HLA-B*46:01; [13]): ≥ 20 µM
Kd (HLA-B*51:01 [7]; [13]): ≥ 20 µM
Kd (HLA-B*57:01; [13]): ≥ 20 µM

LLRQHWLSL
Kd (HLA-B*07:02; [14]): 0.013 µM
Kd (HLA-B*15:01 [8]; source organism: Vibrio cholerae O395): 0.049 µM
Kd (HLA-B*51:01 [9]; [14]): ≥ 20 µM

RTVFFVLMM
Kd (HLA-A*32:01; [12]): ≥ 51.3 µM
Kd (HLA-B*58:01; [12]): 0.635 µM

LMLLALIAV
Kd (HLA-A*02:01 [1]; [15]): 0.0233 µM
Kd (HLA-A*02:06; [16]): 0.00808 µM
Kd (HLA-A*02:17; [15]): 0.553 µM

RVIDSRKSV
Kd (HLA-B*51:01 [9]; [17]): 1.6 µM

PASAAQRRGR
Kd (HLA-B*58:01; [12]): 15.4 µM

YLDVDLHPA
Kd (HLA-A*02:01 [1]; [18]): 0.00442 µM
Kd (HLA-A*02:06; [19]): 0.0372 µM
Kd (HLA-A*02:17; [18]): 1.89 µM

MIAGVLFTFV
Kd (HLA-A*02:01 [1]; [18]): 0.0107 µM
Kd (HLA-A*02:03 [2]; [20]): 0.00185 µM
Kd (HLA-A*02:06; [20]): 0.00244 µM
Kd (HLA-A*02:17; [18]): 0.423 µM
Kd (HLA-A*68:02 [10]): 0.00175 µM

VTFGARASF
Kd (HLA-A*02:01 [3]; [21]): ≥ 20 µM
Kd (HLA-A*02:03 [4]; [21]): ≥ 20 µM
Kd (HLA-A*02:11; [21]): ≥ 20 µM
Kd (HLA-A*02:12; [21]): ≥ 20 µM
Kd (HLA-A*02:16; [21]): ≥ 20 µM
Kd (HLA-A*02:19; [21]): ≥ 20 µM
Kd (HLA-A*03:01; [21]): ≥ 20 µM
Kd (HLA-A*26:01; [21]): ≥ 20 µM
Kd (HLA-A*69:01; [21]): ≥ 20 µM
Kd (HLA-B*27:03; [21]): ≥ 20 µM
Kd (HLA-B*39:01; [21]): ≥ 20 µM
Kd (HLA-B*57:01; [21]): 0.0974 µM

IASAIVLEF
Kd (HLA-B*35:01; [19]): 0.00889 µM
Kd (HLA-B*53:01; [19]): 0.00765 µM
Kd (HLA-B*58:01; [19]): 0.00288 µM

ALIFILLTAV
Kd (HLA-A*02:01 [1]; [22]): 0.000498 µM
Kd (HLA-A*02:03 [2]; [22]): 0.0132 µM
Kd (HLA-A*02:06; [22]): 0.0568 µM
Kd (HLA-A*02:17; [22]): ≥ 39.4 µM

KLAQVRRAM
Kd (HLA-B*07:02; [23]): 0.006 µM
Kd (HLA-B*15:01 [8]; source organism: Burkholderia mallei ATCC 23344): 0.027 µM
Kd (HLA-B*51:01 [9]; [23]): ≥ 20 µM

CLWPKTHTL
Kd (HLA-A*02:01 [1]; [12]): 0.0138 µM
Kd (HLA-A*02:17; [12]): 0.251 µM
Kd (HLA-B*08:01; [12]): 0.00574 µM

GSGDDTWLI
Kd (HLA-A*02:01 [3]; [24]): ≥ 20 µM
Kd (HLA-A*02:03 [4]; [24]): ≥ 20 µM
Kd (HLA-A*02:11; [24]): ≥ 20 µM
Kd (HLA-A*02:12; [24]): 1.27 µM
Kd (HLA-A*02:16; [24]): ≥ 20 µM
Kd (HLA-A*02:19; [24]): ≥ 20 µM
Kd (HLA-A*03:01; [24]): ≥ 20 µM
Kd (HLA-A*24:03; [24]): ≥ 20 µM
Kd (HLA-A*26:01; [24]): ≥ 20 µM
Kd (HLA-A*29:02; [24]): ≥ 20 µM
Kd (HLA-A*68:02 [5]; [24]): ≥ 20 µM
Kd (HLA-A*69:01; [24]): ≥ 20 µM
Kd (HLA-B*15:01 [6]; [24]): ≥ 20 µM
Kd (HLA-B*15:17; [24]): ≥ 20 µM
Kd (HLA-B*18:01; [24]): ≥ 20 µM
Kd (HLA-B*27:03; [24]): ≥ 20 µM
Kd (HLA-B*39:01; [24]): ≥ 20 µM
Kd (HLA-B*46:01; [24]): ≥ 20 µM
Kd (HLA-B*51:01 [7]; [24]): ≥ 20 µM
Kd (HLA-B*57:01; [24]): ≥ 20 µM

IPTAAGKNL
Kd (HLA-B*51:01 [9]; [17]): ≥ 20 µM

KMEKASFIEV
Kd (HLA-A*02:01 [1]; [22]): 0.143 µM
Kd (HLA-A*02:17; [22]): 1.86 µM

NPITLTAAL
Kd (HLA-B*51:01 [9]; source organism: dengue virus type 2): ≥ 20 µM
Kd (HLA-B*08:01; [22]): 0.0696 µM
Kd (HLA-B*35:01; [22]): 0.0252 µM
Kd (HLA-B*53:01; [22]): 0.377 µM

VLMLVAHYA
Kd (HLA-A*02:01 [1]; [15]): 0.00667 µM
Kd (HLA-A*02:03 [2]; [16]): 0.00273 µM
Kd (HLA-A*02:17; [15]): 13.2 µM

MLDVDLHPA
Kd (HLA-A*02:01 [1]; [25]): 0.0752 µM
Kd (HLA-A*02:06; [25]): 0.018 µM
Kd (HLA-A*02:17; [25]): 19.8 µM

QIMEVTARW
Kd (HLA-A*32:01; [15]): 0.0563 µM
Kd (HLA-B*58:01; [15]): 0.0186 µM

DLAQDPMLI
Kd (HLA-A*02:01 [3]; [26]): ≥ 20 µM
Kd (HLA-A*02:03 [4]; [26]): ≥ 20 µM
Kd (HLA-A*02:11; [26]): ≥ 20 µM
Kd (HLA-A*02:12; [26]): ≥ 20 µM
Kd (HLA-A*02:16; [26]): 0.397 µM
Kd (HLA-A*02:19; [26]): ≥ 20 µM
Kd (HLA-A*03:01; [26]): ≥ 20 µM
Kd (HLA-A*24:03; [26]): ≥ 20 µM
Kd (HLA-A*26:01; [26]): ≥ 20 µM
Kd (HLA-A*29:02; [26]): ≥ 20 µM
Kd (HLA-A*69:01; [26]): ≥ 20 µM
Kd (HLA-B*15:01 [6]; [26]): ≥ 20 µM
Kd (HLA-B*15:17; [26]): ≥ 20 µM
Kd (HLA-B*18:01; [26]): ≥ 20 µM
Kd (HLA-B*27:03; [26]): ≥ 20 µM
Kd (HLA-B*39:01; [26]): ≥ 20 µM
Kd (HLA-B*46:01; [26]): ≥ 20 µM
Kd (HLA-B*51:01 [7]; [26]): ≥ 20 µM
Kd (HLA-B*57:01; [26]): ≥ 20 µM

MALKLITQF
Kd (HLA-B*35:01; [19]): 0.00125 µM
Kd (HLA-B*53:01; [19]): 0.0224 µM
Kd (HLA-B*58:01; [19]): 0.00216 µM

FLFLMSGKGI
Kd (HLA-A*02:01 [1]; [22]): 0.0396 µM
Kd (HLA-A*02:03 [2]; [22]): 0.0115 µM
Kd (HLA-A*02:17; [22]): 1.32 µM
Kd (HLA-B*51:01 [11]): 5.58 µM

LAVFPAMFW
Kd (HLA-A*02:01 [3]; [27]): ≥ 20 µM
Kd (HLA-A*02:03 [4]; [27]): ≥ 20 µM
Kd (HLA-A*02:11; [27]): ≥ 20 µM
Kd (HLA-A*02:12; [27]): ≥ 20 µM
Kd (HLA-A*02:16; [27]): ≥ 20 µM
Kd (HLA-A*02:19; [27]): ≥ 20 µM
Kd (HLA-A*03:01; [27]): ≥ 20 µM
Kd (HLA-A*26:01; [27]): ≥ 20 µM
Kd (HLA-A*68:02 [5]; [27]): ≥ 20 µM
Kd (HLA-A*69:01; [27]): ≥ 20 µM
Kd (HLA-B*15:01 [6]; [27]): ≥ 20 µM
Kd (HLA-B*18:01; [27]): ≥ 20 µM
Kd (HLA-B*27:03; [27]): ≥ 20 µM
Kd (HLA-B*39:01; [27]): ≥ 20 µM
Kd (HLA-B*46:01; [27]): ≥ 20 µM
Kd (HLA-B*57:01; [27]): 0.0379 µM
